The results in this text go back to publication PMC5673489 (Cell, 2017).

The target of experiment [1] is FIT-1 bispecific antibody (Fabs-in-tandem-Ig, ZKA190 outer Fab, ZKA185 inner Fab, IgG1 LALA) (human). Nature of the experiment: SPR. (SPR reads the build-up and loss of mass on a sensor chip optically.)
The target in experiment [2] is T1, recombinant DIII of ZIKV E protein (Brazil 2015 strain SPH2015) (Zika virus, Brazil 2015 strain SPH2015, strain).
T1 chain: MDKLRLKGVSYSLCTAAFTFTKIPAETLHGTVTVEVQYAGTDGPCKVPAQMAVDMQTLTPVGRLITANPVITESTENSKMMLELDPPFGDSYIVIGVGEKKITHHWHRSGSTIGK
Nature of the experiment: SPR.

Experiment [3] addresses T1, recombinant DIII of ZIKV E protein …. The experiment is described as follows: NMR titration.

Where only a bound is given, the exact number is not on record here.

Turning to “recombinant E protein from ZIKV (natural protein)”, the dissociation constant Kd (in general, a measure of binding affinity in units of concentration) in experiment [1] was under 1 pM.

B1: ZKA190 IgG (antibody, V domains shown)
VH: QVQLVESGGGVVQPGRSLRLSCAASGFTFSKYGMHWVRQAPGKGLEWVAVISYEGSNKYYADSVKGRFTISRDNSKNTLYLQMNSLRAEDTAVYYCAKSGTQYYDTTGYEYRGLEYFGYWGQGTLVTVS
VL: EIVLTQSPGTLSLSPGERATLSCRASQSVSSSYLAWYQQKRGQAPRLLIYDASSRATGIPDRFSGSGSGTDFTLTISRLEPEDFAVYYCQQYGRSRWTFGQGTKVEIK
Turning to B1, in experiment [2], the binding result is “binds”.

B2: ZKA190 Fab (Fab, V domains shown)
VH: B1 VH
VL: B1 VL
Consider B2, for which, in experiment [3], the binding result was “binds”.
